B1: FAM46C (parent)
chain: FDHLQNRLIATKNPEEIRGGGLLK
B2: SLC35F2 (parent)
chain: QYLAERYKVNTPMLQSFINYCLLF

Variants of: B1
Assay: protein stability index of a GFP-peptide fusion (GPS, HEK-293T) (PSI 1-6); higher = more stable
Conditions: c terminus: a fixed tail appended
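Also: lentivirally expressed fusions sorted by FACS into six bins by GFP to DsRed ratio, PSI derived from sequencing read proportions per bin multiplied by bin number.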

Protein stability index, by site and new letter:
G21: S 4.06 | T 4.07 | V 3.53 | W 2.28 | Y 3.21
L22: A 4.86 | C 3.78 | D 4.71 | E 4.3 | F 2.76 | G 4.02 | H 4.2 | I 4.01 | K 4.46 | M 4 | N 4.57 | P 4.2 | Q 4.06 | R 3.98 | S 4.32 | T 4.34 | V 4.14 | Y 3.78
L23: A 3.81 | D 4.65 | E 4.17 | F 3.36 | H 4.73 | I 4.02 | K 5.07 | M 4.55 | N 4.43 | Q 5.13 | R 4.29 | S 3.93 | T 4.56 | V 4.3 | W 3.2 | Y 2.99
K24: A 2.94 | C 2.28 | D 3.51 | E 3.79 | F 2.2 | G 3.52 | H 3.07 | I 1.96 | L 2.18 | M 3.11 | N 3.52 | Q 3.27 | R 3.35 | S 2.9 | T 3.45 | V 2.29 | W 1.95 | Y 1.93

Variants of: B2
Assay: as above
Conditions: c terminus: a fixed tail appended

Protein stability index of substitutions, site by site:
Q1: A 2.56 | C 3.23 | D 3.23 | E 1.97 | F 2.37 | G 3.99 | H 1.53 | I 2.1 | K 2.27 | L 2.23 | M 2.43 | N 2.15 | P 1.77 | R 1.94 | S 2.47 | T 2.71 | V 3.18 | W 2.68 | Y 2.86
Y2: A 2.29 | C 2.17 | D 1.83 | E 1.93 | F 3.47 | G 2.52 | H 1.89 | I 1.68 | K 2.17 | L 2.15 | M 1.24 | N 2.61 | P 1.74 | Q 1.97 | R 2.1 | S 2.08 | T 2.29 | V 2.59 | W 2.26
L3: A 3.3 | C 2.93 | D 3 | E 1.45 | F 3.46 | G 2.92 | H 2.5 | I 3.32 | K 2.43 | M 2.5 | N 2.71 | P 3.5 | Q 2.94 | R 2.98 | S 2.5 | T 2.7 | V 2.34 | Y 2.34
A4: C 3.16 | D 2.26 | E 2.76 | F 1.83 | G 3.01 | H 1.99 | I 2.65 | K 3.59 | L 3.42 | M 3.1 | N 3.76 | P 2.88 | Q 2.56 | R 2.53 | S 3.11 | T 3.02 | V 3.22 | W 2.53 | Y 2.38
E5: A 3.18 | C 3.78 | D 2.88 | F 3.74 | G 2.03 | H 3.1 | I 3.06 | K 1.96 | L 2.72 | M 4.24 | N 2.62 | P 2.34 | Q 2.72 | R 3.95 | S 2.14 | T 2.14 | V 4.14 | W 2.54 | Y 2.14
R6: A 2.7 | C 2.86 | D 1.99 | E 2.72 | G 2 | H 3.38 | I 2.56 | K 2.42 | L 2.11 | M 2.25 | N 3.2 | P 3.62 | Q 2.34 | S 2.94 | T 2.97 | V 2.92

Source: the supplement of paper PMC10567573
